Among the data in the emibetuzumab library of Makowski et al. (2022) are non-specific binding call values, retold here.

B1: VH:VL chains; a variant is named by its letters at X, in order (parent)
chain 1: QVQLVQSGAEVKKPGASVKVSCKASGYTFTDYXMHWVRQAPGQGLEWMGXVNPNXXXTTYNQKFEGRVTMTTDTSTSTAYMELRSLRSDDTAVYYCARXNXLDXWGQGTTVTVSS
chain 2: DIQMTQSPSSLSASVGDRVTITCSVSSSVSSIYLHWYQQKPGKAPKLLIYSTSNLASGVPSRFSGSGSGTDFTLTISSLQPEDFATYYCQVYSGYPLTFGGGTKVEIK

Variants of B1 are the subject of this series. Description: yeast display scFab, FACS + sequencing. In a few lines: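 The non-specific binding call was based on sorted and sequenced yeast displaying a heavy-chain CDR mutant scFab library. Labelling used anti-Myc with biotinylated ovalbumin (260 μg/mL in PBSB, 3 h, room temperature) or soluble membrane proteins (130 μg/mL, 20 min on ice), and FACS collected the top 25% and bottom 10% of binders in two replicates. Positive meant present in ≥3 of 4 pooled positive samples and in no negatives, and negative meant the converse.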
As for DATGGDVA, the non-specific binding call is listed as “no binding”.
Take YGGRGDWV: the non-specific binding call is “no binding”.
In the case of VTTRADVA it was “no binding”; in that of YRKGGSGA, “binds”; in that of VRERGDGS, “no binding”.
Consider YRAKDALA, for which the non-specific binding call is recorded as “no binding”.
For YGGRGSWV, the non-specific binding call is “no binding”.
For the variant VTRGDVWV, the non-specific binding call is “no binding”.
In the case of YEGGGDGD it was “no binding”; in that of SAGGGAGD, “no binding”.
Turning to VATRGFWD, the non-specific binding call is recorded as “no binding”.
Regarding YRKGGFVA, the non-specific binding call is listed as “binds”.
In the case of YRRRGVGD it was “binds”; in that of YRRRGVGV, “binds”; in that of VRAGGDWV, “no binding”.
In the case of AKTKSDWV it was “no binding”; in that of VETRSDVA, “no binding”.
In the case of VTGGDDWV, the non-specific binding call is given as “no binding”.
The result for VTGGDDWY reads “no binding”; that for YRGRSFGV, “binds”; that for VAGTDAGA, “no binding”.
As for VKGAGDLA, the non-specific binding call is “no binding”.
The result for YRARGALS reads “binds”.
Regarding YRAGGSWF, the non-specific binding call is “binds”.
As for YKGKGSGA, the non-specific binding call is given as “binds”.
With YRERGSAD, the non-specific binding call is “binds”.
The result for YRTRSAVY reads “binds”.
In the case of FGKEDSVD it was “binds”.
For the variant STGGDDVY, the non-specific binding call is listed as “no binding”.
The result for FRAGDAGV reads “binds”; that for VKTGGDVA, “no binding”; that for FAATDSVS, “binds”.
For the variant FTETGSVD, the non-specific binding call is listed as “no binding”.
In the case of YRRRGYVV it was “binds”; in that of AEEKGSGD, “no binding”.
With VGGGADVA, the non-specific binding call was “no binding”.
As to ATKGAAVA, the non-specific binding call is on record as “no binding”.
The result for SREAAAVY reads “no binding”; that for YTTKSDGV, “no binding”; that for FREGSAVA, “binds”.
In the case of VTGEDDGD it was “no binding”; in that of VTGEDDGS, “no binding”.
In the case of VKAGSAAA it was “no binding”; in that of YARGGAGA, “no binding”; in that of VTKTGDVA, “no binding”.
Regarding SEGTGSGD, the non-specific binding call is on record as “no binding”.
For VTGTASSV, the non-specific binding call is listed as “no binding”.
Turning to VEEEGDAA, the non-specific binding call was “no binding”.
YRAGTAVD: the non-specific binding call is recorded as “binds”.
In the case of YRRGGALA it was “binds”; in that of DRRGDSLV, “no binding”.
As to VEEEGSGA, the non-specific binding call is “no binding”.
For STEGDAGA, the non-specific binding call is listed as “no binding”.
In the case of DGGKNDLA it was “no binding”; in that of YKRGAAGD, “binds”; in that of YTERGDVD, “no binding”.
Take DEGGTDGS: the non-specific binding call was “no binding”.
The result for VRAGDSLS reads “no binding”.
For FAEGAAGD, the non-specific binding call is recorded as “no binding”.
Take VKRGSAAA: the non-specific binding call was “binds”.
In the case of VKRGSAAV it was “binds”.
The result for YRRRGSVF reads “binds”; that for YRKGGAAV, “binds”; that for YRRGGAWS, “binds”.
In the case of YKGKGSVV it was “binds”.
For the variant YEGGGDWV, the non-specific binding call is “no binding”.
The result for DTGTGDAA reads “no binding”.
Turning to YKGEGFSS, the non-specific binding call is “binds”.
The result for FRGRDFSA reads “binds”; that for YRRGDSWD, “binds”.
The result for VKGRADGS reads “no binding”; that for VRAGDDVA, “no binding”.
For FRGRSSAF, the non-specific binding call is given as “binds”.
The result for VKAKDAGY reads “binds”.
AKKRGAWS: the non-specific binding call is listed as “binds”.
In the case of FRGGGSVS it was “binds”.
As to FTGRGAAA, the non-specific binding call was “binds”.
The result for FRGRGFSA reads “binds”; that for YRRKGSVD, “binds”; that for VRAEGSVA, “binds”.
As for SKERGDLV, the non-specific binding call was “no binding”.
In the case of YKGKDSSV it was “no binding”.
On to VATKGFVV, for which the non-specific binding call is reported as “no binding”.
In the case of YRRGGSGY it was “binds”; in that of FKTKSAGD, “no binding”.
The result for VRRTSAAS reads “binds”; that for FTGEADAS, “no binding”; that for VKGTGVAY, “binds”.
Take FRGRGASD: the non-specific binding call is on record as “binds”.
In the case of FKATTSGA it was “binds”; in that of SKERGDAA, “no binding”; in that of FKGRGAAY, “binds”.
As for FRAGGSSV, the non-specific binding call is recorded as “binds”.
As to SREGGVVV, the non-specific binding call is given as “binds”.
The result for YRGRGYWY reads “binds”; that for VAGAGDSV, “no binding”.
In the case of DKGEGDGA it was “no binding”; in that of DRAGDDGA, “no binding”.
The result for YKRRDAVY reads “binds”; that for DRKGGDWS, “binds”.
In the case of YGKGGDLA, the non-specific binding call is “binds”.
In the case of YTGTSASD it was “no binding”; in that of SKERGDVD, “no binding”; in that of VTTKSDWV, “no binding”.
Consider VTTKSSSA, for which the non-specific binding call is recorded as “no binding”.
The result for YRARGAGY reads “binds”; that for YRERGALA, “binds”.
Take YRAGSASD: the non-specific binding call is recorded as “binds”.
Consider FRGRDFVS, for which the non-specific binding call is listed as “binds”.
Consider VKERGDGV, for which the non-specific binding call is on record as “no binding”.
The result for YRRRGDGY reads “binds”.
As for AEGTNAGD, the non-specific binding call is given as “no binding”.
On to DRGGGDAS, for which the non-specific binding call is “no binding”.
The result for DAGGAAVA reads “no binding”; that for AGGGNDGV, “no binding”; that for VEAGDSSA, “no binding”.
In the case of YRGAGSAD it was “binds”; in that of YTGTSDLV, “no binding”; in that of YRGKSSVD, “binds”.
In the case of FKGEGFGS, the non-specific binding call is reported as “binds”.
The result for DKTGNDVA reads “no binding”; that for YRTRSSAV, “binds”; that for YRTKASLD, “binds”.
In the case of FRGRDSGY it was “binds”; in that of YRARGFGV, “binds”.
For the variant VTGTGDAD, the non-specific binding call was “no binding”.
Turning to YKTRDDAV, the non-specific binding call was “no binding”.
In the case of YRRGSSLS it was “binds”; in that of VKEKGALD, “binds”.
In the case of SRGRGVLV it was “binds”.
Take FRGRGSVY: the non-specific binding call is “binds”.
In the case of DARGAYLV, the non-specific binding call is given as “no binding”.
In the case of VKRATSWD it was “binds”.
The result for VRTEDDWS reads “no binding”; that for FAGRAAWA, “binds”.
DAEATSLV: the non-specific binding call was “no binding”.
As to YRAKGSGD, the non-specific binding call is “binds”.
For the variant VGGTSDVA, the non-specific binding call is recorded as “no binding”.
In the case of YRGRSAGV it was “binds”; in that of YKEGAYAD, “binds”; in that of SEARNAGD, “no binding”.
The result for VAGKGVLD reads “binds”; that for YRGRGVSD, “binds”.
The result for YGGTSYSV reads “no binding”; that for YRAESAAA, “binds”.
On to YTAGSDGV, for which the non-specific binding call is listed as “no binding”.
The result for VEGRGDGY reads “no binding”; that for YRRGAAAV, “binds”.
In the case of YRRRGAVY it was “binds”.
In the case of DTTKGDVV it was “no binding”; in that of VGGTSDWA, “no binding”.
For YKGRGDAD, the non-specific binding call is on record as “binds”.
In the case of VETGNDAV it was “no binding”; in that of YKGRGSAF, “binds”.
Regarding SEARSSLA, the non-specific binding call is listed as “no binding”.
In the case of FAEGDDVY it was “no binding”.
In the case of YKRGSAWV it was “binds”; in that of YAGRGVVD, “binds”.
The result for SGRGNDGV reads “no binding”; that for YRARSSVA, “binds”; that for YTAGSALV, “no binding”.
Consider YRAGGALS, for which the non-specific binding call is on record as “binds”.
The result for DTTGGDGV reads “no binding”; that for VTGESAAV, “no binding”.
In the case of DATGGAAA it was “no binding”; in that of YRGRGVGD, “binds”; in that of YTGGGDGV, “no binding”.
Turning to YARRGSGV, the non-specific binding call is listed as “binds”.
In the case of YKGRSASV it was “no binding”; in that of FKGKGAWY, “binds”; in that of FRERGDGA, “binds”.
Consider VRAGADWY, for which the non-specific binding call is “no binding”.
Regarding FRGRAAVD, the non-specific binding call is recorded as “binds”.
The result for SGGTGDVF reads “no binding”; that for AARADDVD, “no binding”.
The result for YRARGAWV reads “binds”; that for FKGRGALA, “binds”.
For the variant SEEEGSAA, the non-specific binding call was “no binding”.
In the case of DTGTSAAF it was “binds”; in that of VEKGGSGD, “no binding”.
In the case of VRARGAGF, the non-specific binding call is “binds”.
For the variant YRRGDFWA, the non-specific binding call is given as “no binding”.
Regarding YRTEGAVA, the non-specific binding call is “binds”.
For the variant VKGRSDWV, the non-specific binding call is “no binding”.
Take VEARNDWA chain 1 M81I: the non-specific binding call is given as “binds”.
In the case of YRGKSDGS it was “binds”; in that of VKGRADVD, “no binding”.
DKEGGSGV: the non-specific binding call is reported as “no binding”.
Consider YRRGSALY, for which the non-specific binding call is recorded as “binds”.
With YRRGSALS, the non-specific binding call is recorded as “binds”.
The result for YGAKGDGV reads “no binding”; that for DRRGDAVA, “no binding”.
In the case of DRRGDAVY it was “no binding”; in that of YKAGGSLF, “binds”.
In the case of SAGKDDLA, the non-specific binding call is on record as “no binding”.
In the case of VEAGDSWV it was “no binding”; in that of YRAGASLA, “binds”.
Take YRRRSSSS: the non-specific binding call was “binds”.
In the case of FRTGGAVA, the non-specific binding call is “binds”.
The result for VETGNDGV reads “no binding”.
The result for YKERGDVV reads “no binding”.
For the variant YRAKGVGA, the non-specific binding call is given as “binds”.
For the variant VRAGGSGD, the non-specific binding call is reported as “binds”.
For YRGAGAWS, the non-specific binding call was “binds”.
In the case of YARGADGS it was “no binding”; in that of FRARGSGA, “binds”; in that of YKRGGSSY, “no binding”.
With YTGTSSGA, the non-specific binding call was “no binding”.
The result for FTGRGSAD reads “binds”; that for FKGEGYGV, “binds”.
On to FKGRGFGV, for which the non-specific binding call is recorded as “binds”.
YRAGTAAA: the non-specific binding call is given as “binds”.
In the case of VKGKGDLA it was “no binding”; in that of YKRGDAWA, “no binding”; in that of YKRGSAGD, “binds”.
The result for AEARAAGS chain 1 V37I reads “binds”.
The result for VAGTGDWA reads “no binding”; that for DATGGDGY, “no binding”.
YAGAAAVD: the non-specific binding call is “binds”.
In the case of SEARSSSA it was “no binding”.
In the case of SEARSSSY it was “no binding”; in that of SEARSSSD, “no binding”.
Take VATGDDVD: the non-specific binding call is reported as “no binding”.
Consider YRGRGYGS, for which the non-specific binding call is listed as “binds”.
Regarding YRGRGYGF, the non-specific binding call is given as “binds”.
The result for YAKADYSS reads “binds”; that for YRTRDVGF, “binds”.
Take FRRGSALA: the non-specific binding call is given as “binds”.
In the case of YATKGFGD it was “binds”; in that of DKEGGDVV, “no binding”; in that of YRRRGAAD, “binds”.
The result for YEGGADVV reads “no binding”; that for ARARGSWV, “binds”.
YRAKSALV: the non-specific binding call is recorded as “binds”.
In the case of VKERGDAV it was “no binding”; in that of YRAKGAGD, “binds”.
